Experiment: soluble on expression in E. coli; label from the status in PepcDB or PDB records

Sequence	soluble on expression in E. coli
MGSSHHHHHHSSENLYFQGHMSDLPRISVAAPRLDGNERDYVLECMDTTWISSVGRFIVEFEKAFADYCGVKHAIACNNGTTALHLALVAMGIGPGDEVIVPSLTYIASANSVTYCGATPVLVDNDPRTFNLDAAKLEALITPRTKAIMPVHLYGQICDMDPILEVARRHNLLVIEDAAEAVGATYRGKKSGSLGDCATFSFFGNKIITTGEGGMITTNDDDLAAKMRLLRGQGMDPNRRYWFPIVGFNYRMTNIQAAIGLAQLERVDEHLAARERVVGWYEQKLARLGNRVTKPHVALTGRHVFWMYTVRLGEGLSTTRDQVIKDLDALGIESRPVFHPMHIMPPYAHLATDDLKIAEACGVDGLNLPTHAGLTEADIDRVIAALDQVLV	soluble
MSLSDDVALPLEFTDAAANKVKSLIADEDNPNLKLRVYITGGGCSGFQYGFTFDDQVNEGDMTIEKQGVGLVVDPMSLQYLVGGSVDYTEGLEGSRFIVTNPNAKSTCGCGSSFSIEGGSHHHHHH	soluble
MGSDKIHHHHHHMNLTHRQLTMFRAIMLHGNLGRAADACASSQPTLSRELGRLEQLLGFNLFDRVRGRLRPTVRALALMQEVERSFIGLEQIAARASELRTQATGRLRIACLPALAHALVPRALVYLSHTHPELGVSVHPLESPWLEQAMSEQRFDLGLSETQKAPAGVTLQPLLKVNEVAVLPRDHSLCRKARLQPRDFTGERFISLAVGDPYRTAIDAMFEDAKVHRVTLLETTSSVAVCAMVRQGLGVAIVNPFTAMELSGPDLVVRSLTVAIGYQVNMLLPEIAAPHPLQSVLADTVRKASADLSHLDQCFY	not soluble
MSLDHRKRESINDKNKMKVYTTVYAFQSLTQQIGGKYVDVQSIYPDGADLHSYEPTQKDMIDIAKSDLFVYSSHQLDPVAAKITNSMTNNSMKLALAEGLKQSDFIDSKGHDEDHEHHSHHEESNQDPHVWLDPVLNQKFAFMIKEKLIEKDPKHQAYYNKNYKMVNKDIVHIDQQLQSITKHSKRDKVVISHDSLGYLAHRYGFKQQGVKGMNDEEPSQKEILNIVKDIQHSHAPYVLYEQNITSKITDVIKKETDTKPLSFHNLAVLTKEEQNDDSISYQSLMKKNIYVLNRALNNEGHHHHHH	soluble
MGSDKIHHHHHHMRRNQVAIVGAAETTKLGVIPDMSQIQLHADAALNAIADAGLKLSDIDGIATAVETPQQIAHYLGITPTWVDGTSVGGCSFMLHVRHAAAAIEAGLCKTVLITHAESGKSMIGKLPRSIPADSLQGQFEAPYGIYGPPSQFPIPVLRFMKTHGITHEQIASVAVVQREWAAKNPRAMMKDPITVADVLNSRMIAYPFRLLQCCLVTDGGGALIMTSADRAKDFPHKPVYVLGTGESVETPMVSQMETFNSSRAFKVAGPTAFREAGISHSDVDHLMIYDAFAHLPLFGLGDLGFMPYEETGKFIADGNTRPGGKLPLNTNGGGLSYMHSGMYGMYALQESVRQMRGIAPAQVPNAKISVCHGVGGMFAASGTIIFTNEK	not soluble
MATATMLKPLGDRVVVKRIEEEAKTKGGIVLPDTAKEKPQKGKVVAVGSGRTLDNGTKVPLEVKEGDTVVFAKYGGTEIEIDGEEYIILSERDLLAVI	soluble
ELVMTQTPLSLPVSLGDQASISCRSSQSLVHSNGNTYLHWYLQKPGQSPKFLIYKVSNRFSGVPDRFSGSGSGTDFILKISRVEAEDLGVYFCFQSTHFFPTFGGGTKLEIKRTVAAPSVFIFPPSDEQLKSGTASVVCLLNNFYPREAKVQWKVDNALQSGNSQESVTEQDSKDSTYSLSSTLTLSKADYEKHKVYACEVTHQGLSSPVTKSFNRGEC	soluble
LLELLLLTSELYPDPVLPALSLLPHTVRTAPAEASSLLEAGNADAVLVDARNDLSSGRGLCRLLSSTGRSIPVLAVVSEGGLVAVSADWGLDEILLLSTGPAEIDARLRLVVGRRGDLADQESLGKVSLGELVIDEGTYTARLRGRPLDLTYKEFELLKYLAQHAGRVFTRAQLLHEVWGYDFFGGTRTVDVHVRRLRAKLGPEHEALIGTVRNVGYKAVRPARGRPPAADPDDEDADPGRDGMQEPLVDPLRSQ	not soluble
MSLCQLLGMNCNTPTDIMFSFEGFRRRGGITDHHADGFGIGFFEGKGVRLFHDDKPSVNSPVADLVRAYQIKSENVIAHIRKASQGQTSLANTHPFMREMWGGYWLFAHNGHLIDFFPEQGEFFHPVGTTDSERAFCHILNRLRTRFAARPDDDTLFDAIAGLTHEIRKFGLFNFMLSDGIALFAHASTLLHYIVRQAPFGKEGHHHHHH	not soluble
MVKKEFHLTHTFKNVSKLEDGKTLYGPEEEHFNIPWQLSFCRKEEFVGVFLRCLRPTDGIVPWEINADCILKLTSSAGKCLSHSSTYIFQSIGGFGRRKFVSWDTLVKDHLVNDSIIMEATVMITKMTGISKKKLRSFEKSEEQFSDVVLAVEDKKFFVLRKFLASHSSYFKSLLLGTFAEADKSEIKHEAINSIDFQNFLEVLYGEPVIDDDDVEGILHLAHMYDVPVAIRKCEEFLIEKSEKSMRDQLEIAKKYQLDNLKKSCLSKVNTVEEIKAALMCDLADMDPTVVAALFRKSLALL	not soluble
GLGGFTRTRNKGKSNVIDMIQKYIESKGMPIENWDITVGYCTNLEEAEKYRDDVEAQLGVKLLERREDFKTRISIISGCHTGPYALGIACIPKYTTIRL	not soluble
MRMRLMLLGGGNALGQALIRLGAEEDIGFLAPRPPQDGWDVASLTQLLDDTRPDALINLAYYFDWFQAETVSAARLTHQERSVERLAELCQHHNITLVQPSSYRVFDGSRATAYSEKDEPVPLGLRGQALWRIEQSVRATCPQHVLVRFGWLLDDSADGVLGRFLSRAKEPGELLLADDRRGNPTPVDDAARVIISIVKQLDCEAPLWGTYHYAGHEATTPLALGQAVLTEARLLHPLAIESPTAQAHAARPDAAEEPQHAVLACKKILHTFGIKPRAWRAGLPSLLDRYYRHV	not soluble
MKLDPQTLAHITSATLGNYNRVADDFREGTRDHDVSQNIDALLRHIEGSAPWQILDFGCGPGRDLKTFTAMGHVAVGLDGSERFAEMARAETGCEVFQQNFLELDLPQGRFDGIFANAVLFHIPRQELPRVLRELYATLKPGGVLFSSNPRGQNQEGWQGERYGAYHDLETWRQLLTDAGFAELEHYYRPAGLPRDQQPWLASVWRRLEHHHHHH	not soluble
MCLDVLIHYPQEKADEMISHLCSLAQSRIILSFAPKTCALTLLKKIGSFFPGPSKTTRAYLHREADVIKILESNGFAIQRKEFTKTRFYFSRILEATRSLEHHHHHH	not soluble
MSLTRFQDRQEGERVVDFYMIRDREVKRASNGTDYLNLTLERKLEYIPARLWDATEQHKQALIRRAVVKVDGVVTVYRQQKQLNIQRIRLATDEDPVTVAELISKPGLSREELWHELRMIIEEIQDETLLKLVKTMLGKKEIRERFTTIPASKATHHPYYAGLLEHVVEVCQSILQLSLIYGTINRDVVIAAAILHDIGKVAALHDPFAPEYTDEGEMIGHVVLGVELINQTAQELGISMDEPILLAVKHCILSQREQDEGATSFVYGPKTKEAILLAALDQLNGRLNSFELMASHAEERWTYSPLFKRKMFTPDNDEGHHHHHH	soluble
MLGAMSLRLSEFRETNLLDKILFGVLSPHEIRQLAKVTVVRGDLYEADGTPVSGGLRDPHFGAIEPGERCPVCGNSREECPGHFGKIELARPVLIPHYTDYVYKILQATCRVCGRITLPEEKIKYYRLIFRRLRGKWPQLAKTFATMVVKEAAQATQCPHCGKPQYKVVYIRPFHFYEKKPEGDVKLTPSEIRERLEKTGSEIEILGVHPERSRPEWMVATVLIVPPLAVRPSITLETGLRSEDDLTHALAEIVRQNEKLRNVIVTNAPETLIEENWMVLQEMVAAYIDNELPGARRLTHRRKRYLKTLAQRLKGKDGRIRGNLSGKRVNYSARTVISPDPYISINEVGVPEEIAKTLTIAMRVTPYNLEEARRYVLNGPDKWPGALFVYKASERKKYDLRFFKDYEKLAESLEPGDVVERHLINGDIVLFNRQPSLHRMSIMGHIVRVMPGKTFRLNLLVCPPYNADFDGDEMNLHVPRLEEAQAEAREIMLVEKHILTPRYGGPIIGGRQDYVSGAYLLTVKTRLFTKEEVERLLSVAGYKGDLPEPAILKPEPLWTGKQLASIFLPEDLSFKGKSKTNAGDLACSDELCLHDSYIVITNGKLLEGVLDKKAIGAEEPNNLLHIIALEYGNSKARQLLDSFYRMFIRMLELRGLTISLHDIDLPDRAKQEIEELIREYKGRVYSIIEEYRKGTLEPIPGRSLEESLEIKIMEVLDELRKRVQEVASNNLDPFNDVFVMARTGARGSDVNISQMAAMLGQQAVRGRRIRRGLRNRVLAHFKENDIEPEAWGFVRSSFRKGLRPTEVFFHAAAGREGLVDTAVKTSQSGYMQRRLINALQDIVVTYDGTVRDLYGNLIQLKYGEDGVDPMKTYHGKPVDVKRIIQRVKASKAETV	soluble
GIDAAEYVLYGGKGGVGKTTCAAATALASARDDTATLVVSTDPAHSLSDTLDADIPATPTRIREDIPLYAAEIDPEAAVGEGPLGVEEDALGGVGELLGGDGMFGGGAGGAAGAGQAEDPIGGEEGLLGGSMPGADEAAALRLLLDYVDDDRFDRVVIDTAPTGHTLRLLELPETMDSMVGKILQLRERFSGMMDNLTGMFGDDQDVDAEAGIEDLQELSDRIEHLRGILQDPQRTDFRIVMVPEELSVVESERLLAQLGEFNIPVSTVVVNRVMQDPSEVLGEDVDIAGPNHADCEFCARRWQVQQDALARSQDMFRGHDVRRVPLFAEEVRGERLLSVVAACLD	not soluble
MSLKKWFTILTFVLTAFLVTRTAIAETSPYVLMQQAADKLFSDIQANQSKIKQDPNYLRTIVRNDLLPYVNLEYAGSKVLGSYYKSTSAEQREKFFKTFGELIEQKYAQALTNYSNQKIQIESEKELGDNNFINIRVNIIQANGVAPILLYFKWRKGNKSGEWKVYDMVGAGVSMLEDTIKNWVGILNKQGIDTLITKMQQSASQPIIFNQEGGSHHHHHH	soluble
MGSDKIHHHHHHMIGQSLFIRGARGVTLTPSGERYFQDVTTILHNLMLATEKAADKSPKDSLYIHSSPSFGLLWLLPRLESFKEKFPMIQVNLSCSYENLHFTRDKIDIDIRHGLPNWTGVEIRTIRNEKLEVLASPKLLERSPVHKPQDLLKKELILSRSTLVTWPQWFAHQGLSIPEFPYTLSFDRSYMSLEAATHGLGFVLESNLLTQNYLESGKLVRVFADELSIPISAHHLVYPRTHQFIPKIELFLNWIHDELAG	not soluble
MAHHHHHHMKTFRYLTITGDTITLRRGARHVMHLLLTLERAPYDTRLNLEFVSLAHMRQLNYKYKGLDRPTDVLTFAPAGEADSFVNDLLFGDFLERGDGDKGTGATLTASPTCAAAVGAGPNALTQSIIRGELVDLGNIFVSLDYMRLRCRRYPSTTLPLAPYLHAALVHATLHALGYDHTSRALLQQMARREQQLGRQLAMIARQHPRCLPPLNIWDSM	not soluble
MGSDKIHHHHHHMAKLMNNKLKKEIIDFAHSIGIDSIGFTTADPFDELKQKLEEYHAKGYASGFEESNISLRTEPKLSLPSARSIIAIAVGYPNKLKGAPKSVKGDRRGMFARASWGQDYHSIMRKRLDKLADFIKEKVPDVEIQSMVDTGVLSDRAVAERAGLGFTGRNGFVISPELGTWSYLGEMLVSIPFEPDDPLLDSCGDCTICVDRCPTGALVGNGQLNSQKCISFLTQTKGYLQDEYRYKIGNRLYGCDTCQQVCPKNRGINTQHDDIVLEPEILKPRLVPLLQMSNKKFKSTYGHLAGAWRGKKPIQRNAIIALAHFKEESAIPELKEVALNDPRPMIRGTAYWAIGQILEDDAISFIDEHYENEIEEVQLEMKKGLQMRREQK	not soluble
